Test system: T1, APG08290.1 (Bacillus sp.)
T1 sequence: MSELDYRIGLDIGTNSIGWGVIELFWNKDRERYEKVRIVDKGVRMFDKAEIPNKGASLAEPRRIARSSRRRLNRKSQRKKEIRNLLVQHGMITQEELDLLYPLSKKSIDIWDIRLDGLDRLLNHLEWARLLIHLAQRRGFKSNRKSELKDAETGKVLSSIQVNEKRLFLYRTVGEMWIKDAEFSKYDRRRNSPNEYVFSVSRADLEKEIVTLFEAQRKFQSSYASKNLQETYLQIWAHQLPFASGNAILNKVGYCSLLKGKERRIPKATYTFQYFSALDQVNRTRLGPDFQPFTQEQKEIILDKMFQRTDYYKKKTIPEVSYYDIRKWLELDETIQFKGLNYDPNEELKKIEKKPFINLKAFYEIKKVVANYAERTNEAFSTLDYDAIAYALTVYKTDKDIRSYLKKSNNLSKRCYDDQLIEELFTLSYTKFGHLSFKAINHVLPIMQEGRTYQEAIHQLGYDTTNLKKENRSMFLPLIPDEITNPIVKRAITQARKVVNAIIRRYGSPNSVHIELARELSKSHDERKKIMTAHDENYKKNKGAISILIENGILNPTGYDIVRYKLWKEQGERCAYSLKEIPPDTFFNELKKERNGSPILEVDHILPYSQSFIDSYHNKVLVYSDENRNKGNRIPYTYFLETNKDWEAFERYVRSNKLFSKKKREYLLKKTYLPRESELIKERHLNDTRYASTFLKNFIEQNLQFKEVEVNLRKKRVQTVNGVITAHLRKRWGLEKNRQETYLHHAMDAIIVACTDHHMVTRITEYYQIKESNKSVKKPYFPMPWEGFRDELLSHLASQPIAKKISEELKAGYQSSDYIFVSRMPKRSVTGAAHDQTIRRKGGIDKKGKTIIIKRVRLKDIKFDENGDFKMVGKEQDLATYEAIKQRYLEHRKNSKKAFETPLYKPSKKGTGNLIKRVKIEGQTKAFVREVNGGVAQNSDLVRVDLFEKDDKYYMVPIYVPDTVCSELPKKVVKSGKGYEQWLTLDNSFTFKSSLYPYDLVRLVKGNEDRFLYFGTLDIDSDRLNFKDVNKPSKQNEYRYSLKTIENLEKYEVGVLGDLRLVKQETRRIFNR
Experiment: cleavage_in_vitro
Details: not given

Compared with “GAGCGGACAGCAGCUUCCUAUAUCUCGUACNNNNNNNNNNNNNNNNNNNNNNNNNGUCAUAGUUCCAUGAAAGCCAAAAGUGGCUUUGAUGUUUCUAUGAUAAGGGUUUCGGCCCGUGGCGUCGGGGAUCGCCUGCCCAUUCCGAUGGGCUUCUCCCCAUUUAUU / GAGCGGACAGCAGCTTCCTAAATCTCGTAC / GTACGAGATTTAGGAAGCTGCTGTCCGCTC [Sequence 1 sgRNA for APG08290.1 ; target mismatch 10]”, “GAGCGGACAGCAGCUUCCUAUAUCUCGUACNNNNNNNNNNNNNNNNNNNNNNNNNGUCAUAGUUCCAUGAAAGCCAAAAGUGGCUUUGAUGUUUCUAUGAUAAGGGUUUCGGCCCGUGGCGUCGGGGAUCGCCUGCCCAUUCCGAUGGGCUUCUCCCCAUUUAUU / GAGCGGACAGCAGCTTCCTATAACTCGTAC / GTACGAGTTATAGGAAGCTGCTGTCCGCTC [Sequence 1 sgRNA for APG08290.1 ; target mismatch 8]” is lower in activity: 75 % cleaved for the first, 0 % cleaved for the second.

First: GAGCGGACAGCAGCUUCCUAUAUCUCGUACNNNNNNNNNNNNNNNNNNNNNNNNNGUCAUAGUUCCAUGAAAGCCAAAAGUGGCUUUGAUGUUUCUAUGAUAAGGGUUUCGGCCCGUGGCGUCGGGGAUCGCCUGCCCAUUCCGAUGGGCUUCUCCCCAUUUAUU / CAGCGGACAGCAGCTTCCTATATCTCGTAC / GTACGAGATATAGGAAGCTGCTGTCCGCTG [Sequence 1 sgRNA for APG08290.1 ; target mismatch 30]
Second: GAGCGGACAGCAGCUUCCUAUAUCUCGUACNNNNNNNNNNNNNNNNNNNNNNNNNGUCAUAGUUCCAUGAAAGCCAAAAGUGGCUUUGAUGUUUCUAUGAUAAGGGUUUCGGCCCGUGGCGUCGGGGAUCGCCUGCCCAUUCCGAUGGGCUUCUCCCCAUUUAUU / GAGCGGACAGCAGCTTCGTATATCTCGTAC / GTACGAGATATACGAAGCTGCTGTCCGCTC [Sequence 1 sgRNA for APG08290.1 ; target mismatch 13]
The activity of the first is higher: 100 % cleaved for the first, 28 % cleaved for the second.

“GAGCGGACAGCAGCUUCCUAUAUCUCGUACNNNNNNNNNNNNNNNNNNNNNNNNNGUCAUAGUUCCAUGAAAGCCAAAAGUGGCUUUGAUGUUUCUAUGAUAAGGGUUUCGGCCCGUGGCGUCGGGGAUCGCCUGCCCAUUCCGAUGGGCUUCUCCCCAUUUAUU / GAGCGGACAGCACCTTCCTATATCTCGTAC / GTACGAGATATAGGAAGGTGCTGTCCGCTC [Sequence 1 sgRNA for APG08290.1 ; target mismatch 18]” and “GAGCGGACAGCAGCUUCCUAUAUCUCGUACNNNNNNNNNNNNNNNNNNNNNNNNNGUCAUAGUUCCAUGAAAGCCAAAAGUGGCUUUGAUGUUUCUAUGAUAAGGGUUUCGGCCCGUGGCGUCGGGGAUCGCCUGCCCAUUCCGAUGGGCUUCUCCCCAUUUAUU / GAGCGGACTGCAGCTTCCTATATCTCGTAC / GTACGAGATATAGGAAGCTGCAGTCCGCTC [Sequence 1 sgRNA for APG08290.1 ; target mismatch 22]” are the same in activity: 100 % cleaved for the first, 100 % cleaved for the second.

Compared with “GAGCGGACAGCAGCUUCCUAUAUCUCGUACNNNNNNNNNNNNNNNNNNNNNNNNNGUCAUAGUUCCAUGAAAGCCAAAAGUGGCUUUGAUGUUUCUAUGAUAAGGGUUUCGGCCCGUGGCGUCGGGGAUCGCCUGCCCAUUCCGAUGGGCUUCUCCCCAUUUAUU / GAGCGGACAGCAGCTTCCTATATCTCGAAC / GTTCGAGATATAGGAAGCTGCTGTCCGCTC [Sequence 1 sgRNA for APG08290.1 ; target mismatch 3]”, “GAGCGGACAGCAGCUUCCUAUAUCUCGUACNNNNNNNNNNNNNNNNNNNNNNNNNGUCAUAGUUCCAUGAAAGCCAAAAGUGGCUUUGAUGUUUCUAUGAUAAGGGUUUCGGCCCGUGGCGUCGGGGAUCGCCUGCCCAUUCCGAUGGGCUUCUCCCCAUUUAUU / GAGCGGACAGCAGCTTCCTATATCTCGTTC / GAACGAGATATAGGAAGCTGCTGTCCGCTC [Sequence 1 sgRNA for APG08290.1 ; target mismatch 2]” is lower in activity: 73 % cleaved for the first, 0 % cleaved for the second.

Same assay, conditions: incompatible PAM

For “GAGCGGACAGCAGCUUCCUAUAUCUCGUACNNNNNNNNNNNNNNNNNNNNNNNNNGUCAUAGUUCCAUGAAAGCCAAAAGUGGCUUUGAUGUUUCUAUGAUAAGGGUUUCGGCCCGUGGCGUCGGGGAUCGCCUGCCCAUUCCGAUGGGCUUCUCCCCAUUUAUU / GAGCGGACAGCAGCTTCCTATATCTCGTAC / GTACGAGATATAGGAAGCTGCTGTCCGCTC”, the activity was 0 % cleaved.

Reference: patent publication US20250283117, “RNA-GUIDED NUCLEASES AND ACTIVE FRAGMENTS AND VARIANTS THEREOF AND METHODS OF USE” (Life Edit Therapeutics, Inc., published 2025)
